Data published in the supplement of paper PMC7877785.
± gives the uncertainty stated by the source.

Assay: self-splicing fitness, log relative to wild type (ln ratio); higher = more splicing; Tetrahymena group I intron in knt gene, E. coli kanamycin selection, DiMSum; sequences stand for … in CUCUCU…GGAGGGAAAAGUUAUCAGGCAUGCACCUGGUAGCUAGUCUUUAAACCAAUAGAUUGCAUCGGUUUAAAAGGCAAGACCGUCAAAUUGCGGGAAAGGGGUCAACAGCCGUUCAGUACCAAGUCUCAGGGGAAACUUUGAGAUGGCCUUGCAAAGGGUAUGGUAAUAAGCUGACGGACAUGGUCCUAACCACGCAGCCAAGUCCUAAGUCAACAGAUCUUCUGUUGAUAUGGAUGCAGUUCACAGACUAAAUGUCGGUCGGGGAAGAUGUAUUCUUCUCAUAAGAUAUAGUCGGACCUCUCCUUAAUGGGAGCUAGCGGAUGAAGUGAUGCAACACUGGAGCCGCUGGGAACUAAUUUGUAUGCGAAAGUAUAUUGAUUAGUUUUGGAGUACUCGUGGUCG
How it was run: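 Library with all eight P1ex-region intron nucleotides randomised, intron inside the knt kanamycin-resistance gene on pET-22b(+), in E. coli BL21(DE3). Cells grew overnight at 37°C or 30°C on LB agar with or without 25 μg/mL kanamycin (plus 100 μg/mL carbenicillin, 50 μM IPTG, 0.2% rhamnose), in six replicate transformations. Pooled colonies were amplicon-sequenced on Illumina HiSeq 2500. DiMSum fitness is the error-weighted combination of wild-type-normalised replicate fold changes, kanamycin versus none.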

Sequence: GCUAAGCAAUAUUACGUGUU
- self-splicing fitness (ln) (30 °C): -1.78 ± 0.072
- self-splicing fitness (ln) (37 °C): -0.774 ± 0.093

Sequence: GCUAAGCAAUAUUACGUUGC
- self-splicing fitness (ln) (30 °C): -2.26 ± 0.46
- self-splicing fitness (ln) (37 °C): -1.71 ± 0.38

Sequence: GCUCAGCAAUAUUACGACAA
- self-splicing fitness (ln) (30 °C): -1.6 ± 0.15
- self-splicing fitness (ln) (37 °C): -1.42 ± 0.21

Sequence: GCUCAGCAAUAUUACGAGUG
- self-splicing fitness (ln) (30 °C): -1.21 ± 0.063
- self-splicing fitness (ln) (37 °C): -0.148 ± 0.092

Sequence: GCUCAGCAAUAUUACGAUCA
- self-splicing fitness (ln) (30 °C): -0.7 ± 0.19
- self-splicing fitness (ln) (37 °C): -0.164 ± 0.17

Sequence: GCUCAGCAAUAUUACGAUUA
- self-splicing fitness (ln) (30 °C): -0.516 ± 0.072
- self-splicing fitness (ln) (37 °C): -0.287 ± 0.08

Sequence: GCUCAGCAAUAUUACGCAUC
- self-splicing fitness (ln) (30 °C): -0.653 ± 0.079
- self-splicing fitness (ln) (37 °C): -0.186 ± 0.087

Sequence: GCUCAGCAAUAUUACGCCGU
- self-splicing fitness (ln) (30 °C): -0.521 ± 0.14
- self-splicing fitness (ln) (37 °C): -1.61 ± 0.22

Sequence: GCUCAGCAAUAUUACGCGUC
- self-splicing fitness (ln) (30 °C): -0.866 ± 0.1
- self-splicing fitness (ln) (37 °C): -0.379 ± 0.12

Sequence: GCUCAGCAAUAUUACGGAGC
- self-splicing fitness (ln) (37 °C): -1.82 ± 0.44

Sequence: GCUCAGCAAUAUUACGGAGG
- self-splicing fitness (ln) (30 °C): -1.44 ± 0.08
- self-splicing fitness (ln) (37 °C): -0.504 ± 0.091

Sequence: GCUCAGCAAUAUUACGGCAA
- self-splicing fitness (ln) (30 °C): -1.98 ± 0.16
- self-splicing fitness (ln) (37 °C): -1.1 ± 0.17

Sequence: GCUCAGCAAUAUUACGGCGA
- self-splicing fitness (ln) (30 °C): -1.73 ± 0.12
- self-splicing fitness (ln) (37 °C): -1.36 ± 0.19

Sequence: GCUCAGCAAUAUUACGGCGC
- self-splicing fitness (ln) (30 °C): -1.44 ± 0.085
- self-splicing fitness (ln) (37 °C): -0.248 ± 0.12

Sequence: GCUCAGCAAUAUUACGGGAC
- self-splicing fitness (ln) (30 °C): -0.927 ± 0.27
- self-splicing fitness (ln) (37 °C): -0.928 ± 0.26

Sequence: GCUCAGCAAUAUUACGGUAC
- self-splicing fitness (ln) (30 °C): -0.486 ± 0.13
- self-splicing fitness (ln) (37 °C): -0.709 ± 0.15

Sequence: GCUCAGCAAUAUUACGUACU
- self-splicing fitness (ln) (30 °C): -0.953 ± 0.087
- self-splicing fitness (ln) (37 °C): -0.636 ± 0.086

Sequence: GCUCAGCAAUAUUACGUCCA
- self-splicing fitness (ln) (30 °C): -1.28 ± 0.11
- self-splicing fitness (ln) (37 °C): -0.711 ± 0.13

Sequence: GCUCAGCAAUAUUACGUGCA
- self-splicing fitness (ln) (30 °C): -1.12 ± 0.097
- self-splicing fitness (ln) (37 °C): -0.787 ± 0.1

Sequence: GCUCAGCAAUAUUACGUUCU
- self-splicing fitness (ln) (30 °C): -0.649 ± 0.074
- self-splicing fitness (ln) (37 °C): -0.195 ± 0.09

Sequence: GCUGAGCAAUAUUACGAGCC
- self-splicing fitness (ln) (30 °C): -1.55 ± 0.43

Sequence: GCUGAGCAAUAUUACGAGGU
- self-splicing fitness (ln) (30 °C): -3.72 ± 0.29
- self-splicing fitness (ln) (37 °C): -1.74 ± 0.22

Sequence: GCUGAGCAAUAUUACGCAAC
- self-splicing fitness (ln) (30 °C): -2.18 ± 0.24
- self-splicing fitness (ln) (37 °C): -2.11 ± 0.37

Sequence: GCUGAGCAAUAUUACGCAUG
- self-splicing fitness (ln) (30 °C): -2.68 ± 0.13
- self-splicing fitness (ln) (37 °C): -1.92 ± 0.17

Sequence: GCUGAGCAAUAUUACGCCUA
- self-splicing fitness (ln) (30 °C): -1.55 ± 0.32
- self-splicing fitness (ln) (37 °C): -0.595 ± 0.2

Sequence: GCUGAGCAAUAUUACGCUGA
- self-splicing fitness (ln) (30 °C): -2.99 ± 0.2
- self-splicing fitness (ln) (37 °C): -1.15 ± 0.17

Sequence: GCUGAGCAAUAUUACGCUUC
- self-splicing fitness (ln) (30 °C): -2.38 ± 0.15
- self-splicing fitness (ln) (37 °C): -3.41 ± 0.39

Sequence: GCUGAGCAAUAUUACGGACA
- self-splicing fitness (ln) (30 °C): -2.53 ± 0.2
- self-splicing fitness (ln) (37 °C): -0.488 ± 0.17

Sequence: GCUGAGCAAUAUUACGGCUU
- self-splicing fitness (ln) (30 °C): -2.37 ± 0.24

Sequence: GCUGAGCAAUAUUACGGGAA
- self-splicing fitness (ln) (30 °C): -4.56 ± 0.42
- self-splicing fitness (ln) (37 °C): -2.02 ± 0.21

Sequence: GCUGAGCAAUAUUACGGGCG
- self-splicing fitness (ln) (30 °C): -1.83 ± 0.14
- self-splicing fitness (ln) (37 °C): 0.15 ± 0.15

Sequence: GCUGAGCAAUAUUACGGGUC
- self-splicing fitness (ln) (30 °C): -4.37 ± 0.46
- self-splicing fitness (ln) (37 °C): -1.36 ± 0.24

Sequence: GCUGAGCAAUAUUACGGGUU
- self-splicing fitness (ln) (30 °C): -3.5 ± 0.15
- self-splicing fitness (ln) (37 °C): -3.05 ± 0.13

Sequence: GCUGAGCAAUAUUACGGUUC
- self-splicing fitness (ln) (30 °C): -2.48 ± 0.14
- self-splicing fitness (ln) (37 °C): -1.69 ± 0.15

Sequence: GCUGAGCAAUAUUACGUCAA
- self-splicing fitness (ln) (30 °C): -3.38 ± 0.47

Sequence: GCUGAGCAAUAUUACGUGGG
- self-splicing fitness (ln) (30 °C): -2.02 ± 0.16
- self-splicing fitness (ln) (37 °C): -2.36 ± 0.26

Sequence: GCUGAGCAAUAUUACGUGUA
- self-splicing fitness (ln) (30 °C): -2.4 ± 0.21
- self-splicing fitness (ln) (37 °C): -3.02 ± 0.32

Sequence: GCUUAGCAAUAUUACGAACA
- self-splicing fitness (ln) (30 °C): -1.38 ± 0.16
- self-splicing fitness (ln) (37 °C): -0.519 ± 0.19

Sequence: GCUUAGCAAUAUUACGAACU
- self-splicing fitness (ln) (30 °C): -0.838 ± 0.08
- self-splicing fitness (ln) (37 °C): 0.0658 ± 0.1

Sequence: GCUUAGCAAUAUUACGACUU
- self-splicing fitness (ln) (30 °C): 0.0581 ± 0.092
- self-splicing fitness (ln) (37 °C): 0.248 ± 0.1

Sequence: GCUUAGCAAUAUUACGAGGU
- self-splicing fitness (ln) (30 °C): -4.11 ± 0.21
- self-splicing fitness (ln) (37 °C): -2.55 ± 0.18

Sequence: GCUUAGCAAUAUUACGAGUA
- self-splicing fitness (ln) (30 °C): -1.37 ± 0.16
- self-splicing fitness (ln) (37 °C): -0.0404 ± 0.14

Sequence: GCUUAGCAAUAUUACGAGUC
- self-splicing fitness (ln) (30 °C): -2.18 ± 0.16
- self-splicing fitness (ln) (37 °C): -2.22 ± 0.22

Sequence: GCUUAGCAAUAUUACGAUUC
- self-splicing fitness (ln) (30 °C): -0.128 ± 0.12
- self-splicing fitness (ln) (37 °C): 0.0621 ± 0.13

Sequence: GCUUAGCAAUAUUACGCAAC
- self-splicing fitness (ln) (30 °C): -2.43 ± 0.22
- self-splicing fitness (ln) (37 °C): -0.318 ± 0.13

Sequence: GCUUAGCAAUAUUACGCCAG
- self-splicing fitness (ln) (30 °C): -1.89 ± 0.33
- self-splicing fitness (ln) (37 °C): -1.76 ± 0.33

Sequence: GCUUAGCAAUAUUACGCGUC
- self-splicing fitness (ln) (30 °C): -0.947 ± 0.13
- self-splicing fitness (ln) (37 °C): -0.88 ± 0.13

Sequence: GCUUAGCAAUAUUACGGAAA
- self-splicing fitness (ln) (30 °C): -2.37 ± 0.25
- self-splicing fitness (ln) (37 °C): -0.752 ± 0.17

Sequence: GCUUAGCAAUAUUACGGAUA
- self-splicing fitness (ln) (30 °C): -2.7 ± 0.39
- self-splicing fitness (ln) (37 °C): -1.71 ± 0.31

Sequence: GCUUAGCAAUAUUACGGAUC
- self-splicing fitness (ln) (30 °C): -0.319 ± 0.092
- self-splicing fitness (ln) (37 °C): 0.437 ± 0.11

Sequence: GCUUAGCAAUAUUACGGCUG
- self-splicing fitness (ln) (30 °C): -3.18 ± 0.28
- self-splicing fitness (ln) (37 °C): -2.21 ± 0.28

Sequence: GCUUAGCAAUAUUACGGGUG
- self-splicing fitness (ln) (30 °C): -0.826 ± 0.059
- self-splicing fitness (ln) (37 °C): -0.144 ± 0.075

Sequence: GCUUAGCAAUAUUACGGUUC
- self-splicing fitness (ln) (30 °C): -0.635 ± 0.098
- self-splicing fitness (ln) (37 °C): -0.185 ± 0.12

Sequence: GCUUAGCAAUAUUACGUCAU
- self-splicing fitness (ln) (30 °C): -2.19 ± 0.14
- self-splicing fitness (ln) (37 °C): -0.965 ± 0.12

Sequence: GGAAAGCAAUAUUACGAAAU
- self-splicing fitness (ln) (30 °C): -1.52 ± 0.3
- self-splicing fitness (ln) (37 °C): -1 ± 0.41

Sequence: GGAAAGCAAUAUUACGAAUC
- self-splicing fitness (ln) (30 °C): -1.73 ± 0.14
- self-splicing fitness (ln) (37 °C): -1.5 ± 0.17

Sequence: GGAAAGCAAUAUUACGACGA
- self-splicing fitness (ln) (30 °C): -0.602 ± 0.13
- self-splicing fitness (ln) (37 °C): 0.0265 ± 0.16

Sequence: GGAAAGCAAUAUUACGAGCU
- self-splicing fitness (ln) (30 °C): -0.199 ± 0.11
- self-splicing fitness (ln) (37 °C): 0.478 ± 0.12

Sequence: GGAAAGCAAUAUUACGAGGG
- self-splicing fitness (ln) (30 °C): -3.74 ± 0.17
- self-splicing fitness (ln) (37 °C): -2.54 ± 0.16

Sequence: GGAAAGCAAUAUUACGCCCA
- self-splicing fitness (ln) (30 °C): 0.064 ± 0.16
- self-splicing fitness (ln) (37 °C): 0.325 ± 0.23

Sequence: GGAAAGCAAUAUUACGCUCU
- self-splicing fitness (ln) (30 °C): -3.11 ± 0.33
